Data from patent US20240189443A1, “PD-L1 AND TLR7 DOUBLE-TARGETING NANOBODY COUPLING DRUG AND USE THEREOF IN ANTI-TUMOR” (SHANGHAI INSTITUTE OF MATERIA MEDICA, CHINESE ACADEMY OF …, priority 2021, published 2024).

B1: h_Nb2_G30R (VHH)
VHH: DVQLQESGGGLVQPGGSLRLSCAASGFTFRDRWMYWLRQAPGKGLEWVSSINPAGRSTYYADSVKGRFTISRDNAKNTLYLQMNSLKSEDTAVYYCTKDPGGYQKGQGTQVTVSS
notes: also called 107
B2: h_Nb2_G101W (VHH)
VHH: DVQLQESGGGLVQPGGSLRLSCAASGFTFGDRWMYWLRQAPGKGLEWVSSINPAGRSTYYADSVKGRFTISRDNAKNTLYLQMNSLKSEDTAVYYCTKDPWGYQKGQGTQVTVSS
notes: also called 111
B3: h_Nb2_P100Q (VHH)
VHH: DVQLQESGGGLVQPGGSLRLSCAASGFTFGDRWMYWLRQAPGKGLEWVSSINPAGRSTYYADSVKGRFTISRDNAKNTLYLQMNSLKSEDTAVYYCTKDQGGYQKGQGTQVTVSS
notes: also called 116
B4: h_Nb2_F29R (VHH)
VHH: DVQLQESGGGLVQPGGSLRLSCAASGFTRGDRWMYWLRQAPGKGLEWVSSINPAGRSTYYADSVKGRFTISRDNAKNTLYLQMNSLKSEDTAVYYCTKDPGGYQKGQGTQVTVSS
notes: also called 113
B5: h_Nb2_G30F (VHH)
VHH: DVQLQESGGGLVQPGGSLRLSCAASGFTFFDRWMYWLRQAPGKGLEWVSSINPAGRSTYYADSVKGRFTISRDNAKNTLYLQMNSLKSEDTAVYYCTKDPGGYQKGQGTQVTVSS
notes: also called 108
B6: h_Nb2_P100E (VHH)
VHH: DVQLQESGGGLVQPGGSLRLSCAASGFTFGDRWMYWLRQAPGKGLEWVSSINPAGRSTYYADSVKGRFTISRDNAKNTLYLQMNSLKSEDTAVYYCTKDEGGYQKGQGTQVTVSS
B7: h_Nb2_P100R (VHH)
VHH: DVQLQESGGGLVQPGGSLRLSCAASGFTFGDRWMYWLRQAPGKGLEWVSSINPAGRSTYYADSVKGRFTISRDNAKNTLYLQMNSLKSEDTAVYYCTKDRGGYQKGQGTQVTVSS
notes: also called 115
B8: h_Nb2_G30W (VHH)
VHH: DVQLQESGGGLVQPGGSLRLSCAASGFTFWDRWMYWLRQAPGKGLEWVSSINPAGRSTYYADSVKGRFTISRDNAKNTLYLQMNSLKSEDTAVYYCTKDPGGYQKGQGTQVTVSS
notes: also called 109
B9: h_Nb2_F29W (VHH)
VHH: DVQLQESGGGLVQPGGSLRLSCAASGFTWGDRWMYWLRQAPGKGLEWVSSINPAGRSTYYADSVKGRFTISRDNAKNTLYLQMNSLKSEDTAVYYCTKDPGGYQKGQGTQVTVSS
notes: also called 114
B10: h_Nb2_G101R (VHH)
VHH: DVQLQESGGGLVQPGGSLRLSCAASGFTFGDRWMYWLRQAPGKGLEWVSSINPAGRSTYYADSVKGRFTISRDNAKNTLYLQMNSLKSEDTAVYYCTKDPRGYQKGQGTQVTVSS
notes: also called 110
B11: h_Nb1_G99R (VHH)
VHH: DVQLQESGGGLVQPGGSLRLSCAASGFTFSSYAMSWVRQAPGKGLEWVSDINSGGDNTDYADSVKGRFTISRDNAKNTLYLQMNSLKPEDTAVYYCARRPKLCFSSWGQGTQVTVSS
notes: also called 103
B12: h_Nb1_A61N (VHH)
VHH: DVQLQESGGGLVQPGGSLRLSCAASGFTFSSYAMSWVRQAPGKGLEWVSDINSGGDNTDYNDSVKGRFTISRDNAKNTLYLQMNSLKPEDTAVYYCARGPKLCFSSWGQGTQVTVSS
notes: also called 92
B13: h_Nb1_G99Q (VHH)
VHH: DVQLQESGGGLVQPGGSLRLSCAASGFTFSSYAMSWVRQAPGKGLEWVSDINSGGDNTDYADSVKGRFTISRDNAKNTLYLQMNSLKPEDTAVYYCARQPKLCFSSWGQGTQVTVSS
notes: also called 104
B14: h_Nb1_D62Y (VHH)
VHH: DVQLQESGGGLVQPGGSLRLSCAASGFTFSSYAMSWVRQAPGKGLEWVSDINSGGDNTDYAYSVKGRFTISRDNAKNTLYLQMNSLKPEDTAVYYCARGPKLCFSSWGQGTQVTVSS
notes: also called 99
B15: h_Nb1_C103K (VHH)
VHH: DVQLQESGGGLVQPGGSLRLSCAASGFTFSSYAMSWVRQAPGKGLEWVSDINSGGDNTDYADSVKGRFTISRDNAKNTLYLQMNSLKPEDTAVYYCARGPKLKFSSWGQGTQVTVSS
notes: also called 100
B16: h_Nb1_A61Q (VHH)
VHH: DVQLQESGGGLVQPGGSLRLSCAASGFTFSSYAMSWVRQAPGKGLEWVSDINSGGDNTDYQDSVKGRFTISRDNAKNTLYLQMNSLKPEDTAVYYCARGPKLCFSSWGQGTQVTVSS
notes: also called 93
B17: h_Nb1_D59F (VHH)
VHH: DVQLQESGGGLVQPGGSLRLSCAASGFTFSSYAMSWVRQAPGKGLEWVSDINSGGDNTFYADSVKGRFTISRDNAKNTLYLQMNSLKPEDTAVYYCARGPKLCFSSWGQGTQVTVSS
notes: also called 97
B18: h_Nb1_A61K (VHH)
VHH: DVQLQESGGGLVQPGGSLRLSCAASGFTFSSYAMSWVRQAPGKGLEWVSDINSGGDNTDYKDSVKGRFTISRDNAKNTLYLQMNSLKPEDTAVYYCARGPKLCFSSWGQGTQVTVSS
notes: also called 94
B19: h_Nb1_D59M (VHH)
VHH: DVQLQESGGGLVQPGGSLRLSCAASGFTFSSYAMSWVRQAPGKGLEWVSDINSGGDNTMYADSVKGRFTISRDNAKNTLYLQMNSLKPEDTAVYYCARGPKLCFSSWGQGTQVTVSS
notes: also called 96
B20: h_Nb1_C103M (VHH)
VHH: DVQLQESGGGLVQPGGSLRLSCAASGFTFSSYAMSWVRQAPGKGLEWVSDINSGGDNTDYADSVKGRFTISRDNAKNTLYLQMNSLKPEDTAVYYCARGPKLMFSSWGQGTQVTVSS
B21: h_Nb1_G99W (VHH)
VHH: DVQLQESGGGLVQPGGSLRLSCAASGFTFSSYAMSWVRQAPGKGLEWVSDINSGGDNTDYADSVKGRFTISRDNAKNTLYLQMNSLKPEDTAVYYCARWPKLCFSSWGQGTQVTVSS
notes: also called 105
B22: h_Nb1_D59R (VHH)
VHH: DVQLQESGGGLVQPGGSLRLSCAASGFTFSSYAMSWVRQAPGKGLEWVSDINSGGDNTRYADSVKGRFTISRDNAKNTLYLQMNSLKPEDTAVYYCARGPKLCFSSWGQGTQVTVSS
notes: also called 95
B23: h_Nb1_C103W (VHH)
VHH: DVQLQESGGGLVQPGGSLRLSCAASGFTFSSYAMSWVRQAPGKGLEWVSDINSGGDNTDYADSVKGRFTISRDNAKNTLYLQMNSLKPEDTAVYYCARGPKLWFSSWGQGTQVTVSS
B24: h_Nb1_G99Y (VHH)
VHH: DVQLQESGGGLVQPGGSLRLSCAASGFTFSSYAMSWVRQAPGKGLEWVSDINSGGDNTDYADSVKGRFTISRDNAKNTLYLQMNSLKPEDTAVYYCARYPKLCFSSWGQGTQVTVSS
notes: also called 106
B25: h_Nb1_D62W (VHH)
VHH: DVQLQESGGGLVQPGGSLRLSCAASGFTFSSYAMSWVRQAPGKGLEWVSDINSGGDNTDYAWSVKGRFTISRDNAKNTLYLQMNSLKPEDTAVYYCARGPKLCFSSWGQGTQVTVSS
notes: also called 98
B26: anti-human PD-L1 nanobody h_Nb12 (Fc fusion)
chain: DVQLQESGGGLVQAGGSLRLSCAASGRTFSSRAMGWFRQAPGKEREFVAAISGSGRNTYYADSVKGRFTISRDNAKNSVNLQMNSLKPEDTAVYYCNAAGGGITIATMTQRTQYDYWGQGTQVTVSS
notes: not shown: Fc of human IgG1 from vector pFUSE-hIgG1-Fc
B27: anti-human PD-L1 nanobody h_Nb13 (Fc fusion)
chain: DVQLQESGGGLVQPGGSLRLSCAASGSIFSINAMGWYRQAPGKSRELVAAITSGGSTNYADSVKGRFTISRDTAKNTVYLLMNSLEPEDTAVYYCNVERRRPPHYLSEYDFDWGQGTQVTVSS
notes: as for B26
B28: anti-human PD-L1 nanobody h_Nb9 (Fc fusion)
chain: DVQLQESGGGLVQPGGSLRLSCASSGSIFGLGVKGWYRQPPGNQREMVAQIISGGRISYADSVKGRFTISRDNAKNTVYLQMNSLKPEDTAVYYCNAWGPGQRNYWGRGTQVTVSS
notes: as for B26
B29: anti-human PD-L1 nanobody h_Nb5 (Fc fusion)
chain: DVQLQESGGGAVQSGESLRLSCAASGRDLMFYDVAWFRQAPGKEREGVSYIRSSGTLTKYADSVKGRFTISRDNDKNTVSLQMNSLNPEDTAKYYCAARLQSATSHSDLREDEFNSWGQGTQVTVSS
notes: as for B26
B30: anti-human PD-L1 nanobody h_Nb6 (Fc fusion)
chain: DVQLQESGGGLAQPGGSLRLSCAASGFTFSSYAMSWARQAPGKGLEWVAGIYRGGSDTYYADSVKGRFTISRDNTKNTLYLQMNSLKPEDTALYYCIQGWGLGYANYDYWGQGTQVTVSS
notes: as for B26

The binders below were run against T1, PD-L1 (human PD-L1 protein of the ELISA of Example 16) (human, UniProt Q9NZQ7 19-238, limits assumed) (assay: ELISA; affinity relative to original antibody h_Nb2 VHH (SEQ ID NO.25)).
T1 sequence (Q9NZQ7 19-238 limits assumed): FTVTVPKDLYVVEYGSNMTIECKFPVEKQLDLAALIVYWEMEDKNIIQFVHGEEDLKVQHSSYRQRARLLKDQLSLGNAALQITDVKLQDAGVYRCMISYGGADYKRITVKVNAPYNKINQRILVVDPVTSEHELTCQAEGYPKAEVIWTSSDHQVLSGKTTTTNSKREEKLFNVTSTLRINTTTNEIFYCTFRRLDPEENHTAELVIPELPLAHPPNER
For B1, the Increased relative affinity was 6.23 relative.
For B2, the Increased relative affinity was 5.92 relative.
For B3, the Increased relative affinity was 3.41 relative.
Work on B4 yielded an Increased relative affinity of 1.46 relative.
In the case of B5, the Increased relative affinity is reported as 5.11 relative.
Work on B6 yielded an Increased relative affinity of 3.98 relative.
Binder B7 has an Increased relative affinity of 7.21 relative.
B8 gave an Increased relative affinity of 10 relative.
B9 was tested, and the Increased relative affinity was 1.44 relative.
In the case of B10, the Increased relative affinity is reported as 6.5 relative.

These binders were tested against T1, PD-L1 (human PD-L1 protein of the ELISA …) (assay: ELISA; affinity relative to original antibody h_Nb1 VHH (SEQ ID NO.21)).
For B11, the Increased relative affinity was 12.1 relative.
B12 showed an Increased relative affinity of 5.13 relative.
B13 was tested, and the Increased relative affinity was 6.16 relative.
B14 was tested, and the Increased relative affinity was 5.8 relative.
Work on B15 yielded an Increased relative affinity of 3.31 relative.
B16 showed an Increased relative affinity of 4.66 relative.
In the case of B17, the Increased relative affinity is reported as 5.12 relative.
In the case of B18, the Increased relative affinity is reported as 4.12 relative.
B19 was tested, and the Increased relative affinity was 4.9 relative.
B20 showed an Increased relative affinity of 3.38 relative.
In the case of B21, the Increased relative affinity is reported as 6.16 relative.
B22 was tested, and the Increased relative affinity was 4.28 relative.
With B23 the Increased relative affinity was 3.83 relative.
B24 showed an Increased relative affinity of 7.02 relative.
B25 gave an Increased relative affinity of 11.7 relative.

What follows are binders tested against T2, human PD-L1 on cell strain HEK293T/hPD-L1 (human, UniProt Q9NZQ7 19-290) (assay: flow cytometry on HEK293T/hPD-L1, 10 µg/mL, anti-human IgG Fc (FITC)).
T2 construct: whole, on cells
T2 sequence (Q9NZQ7 19-290): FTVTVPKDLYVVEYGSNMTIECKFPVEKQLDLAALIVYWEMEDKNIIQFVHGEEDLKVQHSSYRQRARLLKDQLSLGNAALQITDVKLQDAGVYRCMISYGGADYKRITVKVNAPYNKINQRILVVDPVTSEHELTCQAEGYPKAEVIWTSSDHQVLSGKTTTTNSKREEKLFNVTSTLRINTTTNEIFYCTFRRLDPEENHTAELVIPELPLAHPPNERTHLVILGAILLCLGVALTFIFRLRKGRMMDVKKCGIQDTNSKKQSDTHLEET
Experimental: The cell strain HEK293T/hPD-L1 was digested, and centrifugationwas performed to remove the supernatant; the cells were washed one time with PBS and the cell density was adjusted to 2.5×10⁶ cells/mL; each cell sample was added to a 100 μL cell suspension, that is, a 2.5×10⁵ cell/sample was comprised; different anti-human PD-L1 candidate nanobodies (the concentration is 10 μg/mL) were respectively added to the samples; incubating for 20 min at 4° C.; centrifuging, removing supernatant, and the cells were washing once with PBS; using diluted antibody anti-human IgG Fc (FITC) as secondary antibody, and the cells were re-suspended; incubating at 4° C. for 20 min; centrifuging, removing supernatant, the cells were washing twice with PBS, and transferred to a flow tube; and was performed on-machine detection by using a flow cytometer to obtain the binding activity of the candidate nanobody and human PD-L1, as shown in FIG. 13.
B26: binds.
B27: binds.
B28: binds.
B29: binds.
B30: binds.
